Test results: the domain aggregation screens of Martell et al. (2025)

Assay: soluble fraction after stress (log2 fold change); higher = more stays soluble; pooled small domains, quantitative proteomics
Conditions: stress: 50 degC
How it was run: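 Quantitative proteomics served as the high-throughput read-out for pooled custom libraries of small protein domains. Each was stressed at 50°C. Aggregation propensity is expressed as the base-two log fold change in soluble protein after stress. A higher value means a larger share of the protein remains in solution.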

Row | Sequence | soluble fraction (log2)
1 | HMKNIINLVIDGELHGKRIDAVIAQKNDSLSRTRIKNLVINGNLSINDEIVSDPSKKIYKDDKVSLTIPLP | -0.058
2 | HMKNIMRQWIELEPDQGKIRSKLYSLDRVVEETTNEVGMIKLLLEIDEKELNNLVSHNDIRLV | -0.21
3 | HMKNIRKQAIEAIDRIKNGNPIVISKNAKLIFKNIAKEANVSPTELHREFRDVMLYVNSLKAP | -0.255
4 | HMKNKVTVPKVEGMDKEEAIQALNEVGLGYKAVMQSSDSVAEGKVISQGTAAGKKVDKNTQIIITVSGG | 0.00222
5 | HMKNLADNIVALRKKHGLSQEQFAEKIDVTRQAVSNWERRIATPDVETIDLIAKLFDTDLTALVNG | -0.0311
6 | HMKNLKLVSNTDGIRIDSWLADEFEDYSRSYLRKLIDQDLVYVNGNKIKANYKLKKGDEISISIPEPE | 0.142
7 | HMKNLTERQQQIIALISGNPLITRAEIASAIGFSVKTIERELSILSEIVSYVGSKKGGHWEIQT | -1.15
8 | HMKNLTERQQRIIALISENPQTTRAEIAGAIGVATKTIERELTTLSNIVYYVGPKKGGHWEIIK | -0.865
9 | HMKNLTEVEYSEFLESIAQDRVSKVQVDGLIIRGEMNDGQRFETVQPQVTDKALIDDMVNHRVDFSGARP | 0.0951
10 | HMKNMSLGERIKEQRKSSGLSQEKVAEFVGVSRQAVTKWETGQSAPSTENLFKLAEIFGTTVDILLA | 0.000199
11 | HMKNNAIAPDQVVSLLKNEVNYNDDGRIEILDNNKNIRYNSKGELLTIEERVNEFLDANPHFRK | -0.119
12 | HMKNSMANVQARREKILSAVDQSEPVAVEGLAQRFNVSITTLRRDLKALSDMGQVKWHHGLVERT | -0.173
13 | HMKNVADEVFEKMLNMIIEGDWKKGEMIPSENELREAFSVSRSTVRQAVQRLSALGIVRSRQGKGTYVEQV | -1.04
14 | HMKNYYELLGVAREASQDQIKKAYRKLARKYHPDVSKEADAETRMQELNVAYDTLSDAEKKREYDFQLDHP | 0.00768
15 | HMKPDDDMLLKILTKLFIQKQFVINSKDIFQYILKNTNRTYENIINIVNRLDTLSIEKKRQLTIPLIKEI | -0.457
16 | HMKPEQIELTFSGTTAMRLDKFLAENQPGLSRAKLQAIISSGSVEVNGKVITKQAFKLDPGDLVKALIPE | 0.0295
17 | HMKPGWEDIFRMNQIQLEDAVRTVNRDDTLAPTKKAYLIQNLLASRWIVGNQLQAQKDKTTE | -0.0813
18 | HMKPGYVIQVNGTVTKIQSGLVYVKTPAAQYTLMRKYAPADAAVGDRVSLWINEEGMVIDVHGK | -0.0092
19 | HMKPKDILLPNFTNLTLDEAKAKAEEVKLNLNVSEEKYDVQIEEGKIISQDPKYQPNYTVKEGSTVNVVVS | 0.161
20 | HMKPLIIPLELMQRLSSDKQLEAGFNRFSKSKQHEFAAYIAAAKRVETKVKRLEKIIPLILSGEGLNDR | -1.36
21 | HMKPLRPVHLEIQTHRLSPVGILRSSFRQAGKVMHSNHGRITGLNLEQLKLIQAAFAGEALPK | -0.0219
22 | HMKPQIRRHEKITALVREHGFMSVEQLARELEVTPQTIRRDIGILSAENVLRRYHGGAALGD | -0.586
23 | HMKPSNLTSDERTQLLAQLKTAMGSDQYNQLRRQVGEEKLLEYVLDNVPGIQEEILGNRAVQENIDLH | 0.23

Row | Sequence | soluble fraction (log2)
24 | HMKPSTVSVPDVSGDKLSTAKMIIRKSGLKVGDVQKIEDDNVGAGKVVRTNPSAGSKKREGSSVDIFVASA | 0.16
25 | HMKPTVKGHFTRKESNVGGYADVRGWGVAGTPSMMANQSKDTRRFSTLIVPGRSVNVHPSPTKEAIIWWQS | -0.0091
26 | HMKPTVKKLLAALPELRSGQPLHLSVATRKLRDAGLLGKNASSPTLFRNYVAQFELIPENQPNAVRYR | -0.551
27 | HMKPVSEMDNMEWVREQYFQNMIYEIGEWVKDKKTGIVGEIVKRGTNYVTIVQEDFSLHKIWLEDLETTE | -0.325
28 | HMKQDYYSILGVMRDASQEEIKRAYLDAAQRLHPDRNTSAGDTEMFLDVQQAYEVLSNPKRRAQYDATLP | 0.148
29 | HMKQEFEMGLPNGVGEQMLAHAIEKFDVKLEHSEFGPKLIGTYEELEKAKVFLYEAIEARLNQLE | -0.0154
30 | HMKQISNTDELETMVKKIIDDNEEQVNKYRGGNEKLFGWFVGQAMKNTGGTANPKVVNEILSKLLK | 0.0976
31 | HMKQLLHLVIGGELKDVRGIEFEDLSKIDFVGAFPSYKAAYDAWKNAAQRTVDNAEMRYFILHAHR | -1.79
32 | HMKQLRVLGIVKAGSILKNSDGSIEFVIEDSGKSLLVKYKGVIPDIFKDGVEAVVEGDLRGSVFNADKLF | -0.75
33 | HMKQMNETQQKAFEIYLDSATFETDYKPISEEQLAAKLDALGLKGSSSSINRWKKDFNWAQALQNKVTLAM | -0.11
34 | HMKQQNFADLAGRFVFNADNEVVFNFGKHKNVPVATVLKNEPGYYGWMMGGDFPLFTKKILKQIKEA | -0.847
35 | HMKQTFGAMLAALRKEKGMTQLELAEQMGVTDKAVSKWERDLSFPDVTSLPRLAEILEVSVDELMQ | -0.0444
36 | HMKQVNVVSVIGQSEANAKTTLTGLGLKVNVAYEEDTSKADGIVLKQSLEGGKTVNEGTTITITVNKIA | -0.0302
37 | HMKQVSDTGAIDAAIREVMDANPDKVAEYRSGKDKLFGFFVGQIMRAMAGKAAPVVVNDRLKALLD | 0.355
38 | HMKQVTVGGTINAGGARIYADSYGNGGGRQTFGSDPIYTVLQERNGYILTRWHKLSSGYTGWFKKSDVSA | -0.298
39 | HMKQYSFEISKADFKKISENFNFKIINEINDSLIISLNDKNINLDELLIFFVERKIKVRSIENI | -0.986
40 | HMKREELTQQTKQNLREAFWSLYIQKPIEKITVKEITDIAGYNRGTFYLYYKDTYDLLAKIE | -0.149
41 | HMKRLLLPGDLAGVRRHLLDRENSFHILRVLRLARGSTIEAMDDAGNRFSATLAGVKAGRALFDLAAKI | -1.54
42 | HMKRLPAQMGGGDGVLRVPGLNNFVYVTIADKTLPAFNNRVPPKKGLRIWVGYSPEEPNLFQVLSTRTD | -0.576
43 | HMKRLPMRKIRDVLRLSADGLSTRKIGVSLTIGRTTVQAYLDRAAEVDLSWPLPPEMSDTDLERLIYPR | -3.39
44 | HMKRNLVSVLDHIVGIGPKRRQSLRTHFGSLEKIKEASVEELAAAPGMNRTSAEAVRHFFDAQQELRGK | 0.537
45 | HMKRRSVIVSVVRAQVRQSADEAAAVVFEAEKNVSLDYLETMPGGWVKVRHRDGQTGFVRVNQIWG | -0.807
46 | HMKRSFGYIRLLPSKRYQASYIGPDSQRHAAPETFTRKMDAEGWLSAERRLIEWDQWTSPEQRAAQARLD | -0.591

Row | Sequence | soluble fraction (log2)
47 | HMKRTRLEEAMDWLREQLNDGPVAYATLKDEAPKAEITLSTLRAAGEALRVDKQKKGVQWGGWTWSLPR | 0.0438
48 | HMKRVTRQRTEILRVIDESERPLGPQEILQAGREAIPSLSIATIYRTLRDLLAEELIKTVALPGDSPRYES | -1.31
49 | HMKSARDDILSALDKAGEPLSMKDIAELSGRKLSTLRAQMTRLVAEGAVQATAAAHSPDRKYRK | -0.0859
50 | HMKSARQIAILEIIAEKSIETQEDLADALRLRGFQVTQATVSRDIKELRLVKALAPDGTYRYATAEK | -0.0157
51 | HMKSEIRKKNSQIILDAAEHEFSVHGYRGTSVQMIADRSGLPKANLHYYYKSKSALYGAVLDRIL | 0.202
52 | HMKSERHALILSLIEKKNVETQEDLAELLKERGVAVTQATVSRDIKELRLIKVLSETGGYKYATVDKAE | -0.103
53 | HMKSIETVAELVAELKKLNPNAKISNIDGTYTLEEDINTITLPKDFKYDNNLGINNKIDDFTPYISLDVKA | 0.41
54 | HMKSIRIPFILTEGPNSQKITIDIDSDEEFRIGDVFDEDDKLWSINQILISGDRKAKMAIASEVTSISALR | -2.39
55 | HMKSKYLIKIEGDFDEKDLYKYLINVSIVNHTKNNGFTEVEFYNDNYSLQQNFLKSMLNDGIIITEFKKVE | -0.115
56 | HMKSLHSEVTDRIRQLIVESHLQPGQRVPELEISRDLGVSRTPIREALKVLAAEGLVELLPLRGAMVK | 0.0612
57 | HMKSLLTARQLEVFEIARNKGYWTTPRKISLVELSKLLDISKSTLSVLLHSIEGKVMEEFYEEIRQ | -1.81
58 | HMKSNIIPLSLKKPQRLDIFLTNYFVDLSRTQIKKMITDGNIKVNDLIAKPSLKLIGDEIIFYTLPK | -1.24
59 | HMKSNNPLDHVRVKQRGASWAYYFEKAKVDGKRRRGEGGGYATEQDARMAGVEAYNAYIGGGAK | -0.0068
60 | HMKSPVKLILRGSIYHIKISAVVNGQRIFVRESSHTTDKREAEQYANKRFAQLVEETEFRTN | -1.11
61 | HMKSQSIFNVKKGDTLSHIAVHVLKKNKQKVTPEAINKMVSNIAFRNKIKNPDLIFPGQKLVLEY | 0.117
62 | HMKSQVVAYSDFVKAVNQKQINEVQIQGDKIRAINKAGEEITVTWLQNDQKLMDDLLDNNVKTIFLE | 0.29
63 | HMKSSYSGNFKQNVVEYMHNNHLSATETANHFKLGGGSVVLRWERIYYEEGPQALYEERRGR | -1.7
64 | HMKSYAQIAEILSGQQPNTSRKEGSNLAVHADWIDALIAKYGTALRPEEANEVVKKEIGIVFSHVLEN | -0.0639
65 | HMKSYQKITPATEGNYLTTYREGDDIKTYEGVKAMYTPADFDASSVREITPEEHQSYQKAKEQALQEETEQ | -0.225
66 | HMKTALDEAKDFLNGALSKGHRPASDVVDEAKEASISEKTLKRAKLAIGIITRKEGFGSEGKWVWELPAR | -0.341
67 | HMKTATAKIKATPFGWLRVRETPSLNGAEIARVNSGESYKILERGEGWIKIKVSDTVEGWVSEAYVELS | -0.102
68 | HMKTEKYIQVISGTVNVRSGPGTSYAEIAKIDASQIYVVTAKEGEWLKISLANGTIGYVAGWLVKEVTG | -0.186
